The target in assay [1] is Recombinant SARS-CoV-2 spike (S) protein (SARS-CoV-2) (UniProt P0DTC2).
For assay [2] the target is unchanged. This is another data set of the same source.

“Human complement factor H (from UniProt P08603 19-1231) (natural protein)”: the cell binding assay: binding of SARS-CoV-2 S lentiviral pseudoparticles pre-treated with FH (20 ug/ml) to A549-hACE2+TMPRSS2 cells, decrease against untreated pseudoparticles in assay [1] was 35%. Moreover, the luciferase reporter activity: entry of SARS-CoV-2 S lentiviral pseudoparticles pre-treated with FH (20 ug/ml) into A549-hACE2+TMPRSS2 cells, reduction against untreated pseudoparticles in assay [2] is 25%.
Regarding “Human native properdin (from UniProt P27918 28-469) (natural protein)”, the cell binding assay: binding of SARS-CoV-2 S lentiviral pseudoparticles pre-treated with FP (20 ug/ml) to A549-hACE2+TMPRSS2 cells, increase against untreated pseudoparticles in assay [1] is 30%. Further, the luciferase reporter activity: entry of SARS-CoV-2 S lentiviral pseudoparticles pre-treated with FP (20 ug/ml) into A549-hACE2+TMPRSS2 cells, increase against untreated pseudoparticles in assay [2] amounted to 80%.
